Our source for the protein stability index values is the supplement of paper PMC10567573.

B1: SAT2 (parent)
chain: GYGIYYFIYSTWKGRTIYLEDIYV
B2: RHOBTB2 (parent)
chain: LYTGELDENERDLMHIAHIAELLE
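Note: lentivirally expressed fusions sorted by FACS into six bins by GFP to DsRed ratio, PSI derived from sequencing read proportions per bin multiplied by bin number.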

Variants of B1 are the subject of one data set. The data set can be described thus: protein stability index of a GFP-peptide fusion (GPS, HEK-293T) (PSI 1-6); higher = more stable. The note with it: c terminus: a fixed tail appended.
Consider GYGDYYFIYSTWKGRTIYLEDIYV [I4D], for which the protein stability index was determined as 2.92.
Same read-out and setting: in the case of GYGAYYFIYSTWKGRTIYLEDIYV [I4A] it was 3.19.
Turning to GYGIYYFIYSTWKGDTIYLEDIYV [R15D], the protein stability index came to 2.9.
Same read-out and setting: for GYGIYYFIYSTWKGMTIYLEDIYV [R15M] the value was 3.05; for GYGIYYFIYSTWKGHTIYLEDIYV [R15H], 2.96.
In the case of GYGIYYFIYSTWKGETIYLEDIYV [R15E], the protein stability index was found to be 3.72.
For GYGIYYFIYSTWKGWTIYLEDIYV [R15W], the protein stability index is 3.58.
Same read-out and setting: in the case of GYGIYYFICSTWKGRTIYLEDIYV [Y9C] it was 2.94.
For the variant GYGIYYFIDSTWKGRTIYLEDIYV [Y9D], the protein stability index amounted to 3.06.
Same read-out and setting: for GYGIYYFINSTWKGRTIYLEDIYV [Y9N] the value was 2.2; for GYGIYYFISSTWKGRTIYLEDIYV [Y9S], 1.59; for GYGIYYFIVSTWKGRTIYLEDIYV [Y9V], 1.67.
On the same count and under the same terms, for GYGIYYFITSTWKGRTIYLEDIYV [Y9T] the value was 2.78.
Regarding GYGIYYFILSTWKGRTIYLEDIYV [Y9L], the protein stability index was found to be 2.57.
The same measure, in the same setting: in the case of GYGIYYFIYSTWKGRTIYLEDIYY [V24Y] it was 2.53; in that of GYGIYYFIYSTWKGRTIYLEDIYS [V24S], 2.83; in that of GYGIYYFIYSTWKGRTIYLEDIYK [V24K], 3.94.
On the same count and under the same terms, for GYGIYYFIYSTWKGRTIYLEDIYG [V24G] the value was 2.6.
GYGIYYFIYSTWKGRTIYLEDIYE [V24E]: the protein stability index is 2.6.
Still for that read-out and setting: for GYGIYYFIYSTWKGRTIYLEDIYM [V24M] the value was 1.63.
The same measure, in the same setting: for GYGIYYFIYSTWKGRTIYLEDIYA [V24A] the value was 2.62; for GYGIYRFIYSTWKGRTIYLEDIYV [Y6R], 3.12; for GYGIYAFIYSTWKGRTIYLEDIYV [Y6A], 2.88.
Turning to GYGIYLFIYSTWKGRTIYLEDIYV [Y6L], the protein stability index was 1.83.
The same measure, in the same setting: in the case of GYGIYCFIYSTWKGRTIYLEDIYV [Y6C] it was 2.94.
Turning to GYGIYQFIYSTWKGRTIYLEDIYV [Y6Q], the protein stability index is 3.44.
On the same count and under the same terms, for GYGIYEFIYSTWKGRTIYLEDIYV [Y6E] the value was 2.64; for GYGIYFFIYSTWKGRTIYLEDIYV [Y6F], 3.09; for GYGIYYFIYSTWKGRTIYYEDIYV [L19Y], 4.
The same measure, in the same setting: for GYGIYYFIYSTWKGRTIYNEDIYV [L19N] the value was 1.73.
The same measure, in the same setting: for GYGIYYFIYSTWKGRTIYFEDIYV [L19F] the value was 2.37; for GYGIYYFIYSTWKGRTIYGEDIYV [L19G], 3.7; for GYGIYYFIYSTWKGRTIYHEDIYV [L19H], 2.98.
On to GYGIYYFIYSTWKGRTIYSEDIYV [L19S], for which the protein stability index was determined as 3.57.
Same read-out and setting: in the case of GYGIYYFIYSTWKGRTKYLEDIYV [I17K] it was 3.66.
Still for that read-out and setting: for GYGIYYFIYSTWKGRTEYLEDIYV [I17E] the value was 2.77; for GYGIYYFIYSTWKGRTFYLEDIYV [I17F], 3.52.
Still for that read-out and setting: in the case of GYGIYYFIYSTWKGRTPYLEDIYV [I17P] it was 2.91; in that of GYGIYYFIYSTWKGRTDYLEDIYV [I17D], 3.35; in that of GYGIYYFIYSTWKGRTMYLEDIYV [I17M], 1.75.
For GYGIYYFIYSTWKGRTIYLEDIFV [Y23F], the protein stability index turned out to be 2.37.
For GYGIYYFIYSTWKGRTIYLEDICV [Y23C], the protein stability index came out at 2.65.
As to GYGIYYFIYSTWKGRTIYLEDIPV [Y23P], the protein stability index was 2.43.
For GYGILYFIYSTWKGRTIYLEDIYV [Y5L], the protein stability index was found to be 2.15.
The same measure, in the same setting: in the case of GYGICYFIYSTWKGRTIYLEDIYV [Y5C] it was 2.85; in that of GYGIDYFIYSTWKGRTIYLEDIYV [Y5D], 2.62.
Take GYGIKYFIYSTWKGRTIYLEDIYV [Y5K]: the protein stability index was 2.61.
Take GYGIGYFIYSTWKGRTIYLEDIYV [Y5G]: the protein stability index stood at 3.41.
Turning to GYGIWYFIYSTWKGRTIYLEDIYV [Y5W], the protein stability index is 2.09.
Same read-out and setting: in the case of GYGIRYFIYSTWKGRTIYLEDIYV [Y5R] it was 2.39; in that of GYGITYFIYSTWKGRTIYLEDIYV [Y5T], 2.53.

Another data set covers variants of B2. The description is as above. The note with it: c terminus: a fixed tail appended.
As to LYTGELDENERDLMHIAHIAEILE [L22I], the protein stability index came out at 2.56.
The same measure, in the same setting: in the case of LYTGELDENERDLMHIAHIAEYLE [L22Y] it was 3.03; in that of LYTGELDEPERDLMHIAHIAELLE [N9P], 2.03; in that of LYTGELDEKERDLMHIAHIAELLE [N9K], 2.68.
On the same count and under the same terms, in the case of LYTGELDENERDLQHIAHIAELLE [M14Q] it was 2.39; in that of LYTGELDENERDLYHIAHIAELLE [M14Y], 2.01; in that of LYTGELDENERDLMHKAHIAELLE [I16K], 4.05.
Same read-out and setting: for LYTQELDENERDLMHIAHIAELLE [G4Q] the value was 2.7; for LYTGESDENERDLMHIAHIAELLE [L6S], 2.81; for LYTGELDENRRDLMHIAHIAELLE [E10R], 2.58.
With LYTGELDENFRDLMHIAHIAELLE [E10F], the protein stability index stood at 2.53.
With LYTGELDENDRDLMHIAHIAELLE [E10D], the protein stability index stood at 2.87.
On the same count and under the same terms, in the case of YYTGELDENERDLMHIAHIAELLE [L1Y] it was 2.78; in that of LVTGELDENERDLMHIAHIAELLE [Y2V], 3.45; in that of LRTGELDENERDLMHIAHIAELLE [Y2R], 3.21.
On the same count and under the same terms, in the case of LNTGELDENERDLMHIAHIAELLE [Y2N] it was 3.17; in that of LDTGELDENERDLMHIAHIAELLE [Y2D], 3.68.
The same measure, in the same setting: for LMTGELDENERDLMHIAHIAELLE [Y2M] the value was 2.73; for LFTGELDENERDLMHIAHIAELLE [Y2F], 2.78; for LYTGELDENERDLMHIAHIAELLN [E24N], 2.42.
Regarding LYTGELDENERDEMHIAHIAELLE [L13E], the protein stability index stood at 3.44.
In the case of LYTGELDENERDVMHIAHIAELLE [L13V], the protein stability index worked out at 3.22.
The same measure, in the same setting: for LYTGELDENERDGMHIAHIAELLE [L13G] the value was 3.74; for LYTGSLDENERDLMHIAHIAELLE [E5S], 2.54.
On the same count and under the same terms, in the case of LYTGYLDENERDLMHIAHIAELLE [E5Y] it was 1.9; in that of LYTGELDENERDLMHINHIAELLE [A17N], 2.92; in that of LYTGELDENERDLMHIIHIAELLE [A17I], 2.1.
Still for that read-out and setting: for LYTGELSENERDLMHIAHIAELLE [D7S] the value was 2.48.
On to LYTGELPENERDLMHIAHIAELLE [D7P], for which the protein stability index stood at 2.52.
On the same count and under the same terms, in the case of LYTGELQENERDLMHIAHIAELLE [D7Q] it was 1.94.
Consider LYTGELIENERDLMHIAHIAELLE [D7I], for which the protein stability index came out at 1.77.
The same measure, in the same setting: for LYTGELEENERDLMHIAHIAELLE [D7E] the value was 2.41; for LYTGELDGNERDLMHIAHIAELLE [E8G], 1.91.
On to LYTGELDINERDLMHIAHIAELLE [E8I], for which the protein stability index is 1.62.
Still for that read-out and setting: for LYTGELDENERDLMHIAHIAELME [L23M] the value was 3.3; for LYTGELDENEDDLMHIAHIAELLE [R11D], 2.9; for LYTGELDENEYDLMHIAHIAELLE [R11Y], 2.42.
The same measure, in the same setting: for LYTGELDENERDLMEIAHIAELLE [H15E] the value was 2.76; for LYTGELDENERNLMHIAHIAELLE [D12N], 3.12; for LYTGELDENERDLMHIAHIAFLLE [E21F], 1.74.
Regarding LYTGELDENERDLMHIAPIAELLE [H18P], the protein stability index came out at 2.88.
As to LYTGELDENERDLMHIAEIAELLE [H18E], the protein stability index came to 3.32.
The same measure, in the same setting: in the case of LYTGELDENERDLMHIAHEAELLE [I19E] it was 4.85.
